# Where two headings read alike, the source gives them in different places.
# Key:
# [1] = Description: The octanol–water partition coefficients (Po/w) of the radioconjugates (20 µL, typically 1 to 5 MBq) were determined by the “shake-flask” method, as previously described.
# PC3 cells = test: Cellular uptake, internalization and blocking assays in PC3 cells; type: cell-based, human; settings: 37 °C
# Description: The time-dependent accumulation of ^111In-conjugates in PC3 cells was evaluated according to a previously described procedure. Briefly, PC3 cells were incubated at 37 °C for 5 min to 4 h with about 7.4 kBq of the tested radioconjugates. To assess the surface binding, the cells were treated twice with glycine buffer (50 mM glycine-HCl/100 mM NaCl, pH 2.8). Then, the cells were lysed with NaOH 1 M (internalized radioconjugate). The activity in both cell surface-bound and internalized fractions was measured in a γ-counter and reported as a percentage of the total applied radioactivity. The total cellular uptake was calculated by the addition of the activities recovered from the surface binding and internalized fractions. Assays for each time point were performed in quadruplicate, and data were presented as average ± SD of typically three independent experiments.
# To assess the specific GRPR-mediated cellular uptake and internalization of radioconjugates (receptor blocking studies), a similar study was performed in which cells were incubated with the [^111In]In-DOTA-Tz-TCO-PEG4-AR for 1, 2 and 4 h, with or without the GRPR agonist Tyr4-Bombesin (0.25 µg/0.5 mL/well).
# [2] = system: PC3 xenografts-bearing mice; test: Biodistribution of 111In-radioconjugates/radiocomplex in PC3 xenografts-bearing mice; type: in vivo, Balb/c-male nude mice
# From the text: (§1) Blood samples were taken by cardiac puncture at sacrifice.
# [3] = as above; type: in vivo, Balb/c-male nude mice; settings: male, Balb/c nude, mouse, iv, total radioactivity, 1 h p.i.
# From the text: as §1
# in vitro = settings: human, human serum
# Description: The radiochemical stability of the radioconjugates was evaluated in vitro by the incubation of the four radioconjugates at 37 °C in PBS, in cell culture media (CCM) and human serum (HS) for 24 h, followed by HPLC analysis.
# GRPR = system: GRPR; parameters: method as in PMID 22080443, PMID 9437737; settings: literature value for reference peptide; ref [32],[39]; cited from earlier work
# [4] = 1 h p.i., blocking (excess of agonist)
compound,measurement,setting,value
"CC(C)C[C@H](NC(=O)C[C@H](O)[C@H](CC(C)C)NC(=O)[C@H](Cc1c[nH]cn1)NC(=O)CNC(=O)[C@@H](NC(=O)[C@H](C)NC(=O)[C@H](Cc1c[nH]c2ccccc12)NC(=O)[C@H](CCC(N)=O)NC(=O)[C@@H](Cc1ccccc1)NC(=O)CN1CCC(NC(=O)OC2CCCc3c(cnnc3-c3ccc(CNC(=O)CN4CCN(CC(=O)O)CCN(CC(=O)O)CCN(CC(=O)O)CC4)cc3)CC2)CC1)C(C)C)C(N)=O (some centres unmarked) [[^111In]In-DOTA-Tz-TCO-Pip-AR, metal not drawn]",logP,[1],-1.28 ± 0.01
same,Distribution of cell-associated activity (surface-bound vs internalized),PC3 cells,almost all cell-associated activity corresponded to the membrane-bound fraction
same,Maximum cellular uptake,PC3 cells; 5 min to 4 h,around 10 % of the total activity applied per million cells
same,Blood uptake,[2]; 1 h p.i.,2. 63 % I.D./g
same,Bone uptake,[2]; 1 h p.i.,1. 2 % I.D./g
same,Excretion,[2]; 1 h p.i.,63. % I.D.
same,Heart uptake,[2]; 1 h p.i.,1. 06 % I.D./g
same,Intestine uptake,[2]; 1 h p.i.,0. 54 % I.D./g
same,Kidneys uptake,[2]; 1 h p.i.,9. 04 % I.D./g
same,Liver uptake,[2]; 1 h p.i.,3. 97 % I.D./g
same,Lungs uptake,[2]; 1 h p.i.,1. 74 % I.D./g
same,Muscle uptake,[2]; 1 h p.i.,0. 64 % I.D./g
same,Pancreas uptake,[2]; 1 h p.i.,3. 24 % I.D./g
same,Spleen uptake,[2]; 1 h p.i.,0. 98 % I.D./g
same,Stomach uptake,[2]; 1 h p.i.,0. 48 % I.D./g
same,Tumor uptake,[2]; 1 h p.i.,2. 79 % I.D./g
same,Blood uptake,[2]; [4],3. 11 % I.D./g
same,Bone uptake,[2]; [4],0. 97 % I.D./g
same,Excretion,[2]; [4],60. % I.D.
same,Heart uptake,[2]; [4],0. 6 % I.D./g
same,Intestine uptake,[2]; [4],0. 4 % I.D./g
same,Kidneys uptake,[2]; [4],7. 18 % I.D./g
same,Liver uptake,[2]; [4],3. 28 % I.D./g
same,Lungs uptake,[2]; [4],1. 44 % I.D./g
same,Muscle uptake,[2]; [4],0. 63 % I.D./g
same,Pancreas uptake,[2]; [4],1. 67 % I.D./g
same,Spleen uptake,[2]; [4],0. 74 % I.D./g
same,Stomach uptake,[2]; [4],0. 34 % I.D./g
same,Tumor uptake,[2]; [4],1. 38 % I.D./g
same,Blood uptake,[2]; 2 h p.i.,0. 16 % I.D./g
same,Bone uptake,[2]; 2 h p.i.,0. 13 % I.D./g
same,Excretion,[2]; 2 h p.i.,91. % I.D.
same,Heart uptake,[2]; 2 h p.i.,0. 08 % I.D./g
same,Intestine uptake,[2]; 2 h p.i.,0. 09 % I.D./g
same,Kidneys uptake,[2]; 2 h p.i.,3. 09 % I.D./g
same,Liver uptake,[2]; 2 h p.i.,1. 02 % I.D./g
same,Lungs uptake,[2]; 2 h p.i.,0. 18 % I.D./g
same,Muscle uptake,[2]; 2 h p.i.,0. 05 % I.D./g
same,Pancreas uptake,[2]; 2 h p.i.,0. 28 % I.D./g
same,Spleen uptake,[2]; 2 h p.i.,0. 28 % I.D./g
same,Stomach uptake,[2]; 2 h p.i.,0. 05 % I.D./g
same,Tumor uptake,[2]; 2 h p.i.,1. 13 % I.D./g
same,tissue uptake at 1 h,"[3]; pancreas, read-out: Pancreas uptake",2.8 ± 0.5 %ID/g
same,tissue uptake at 1 h,"[3]; tumor (PC3 xenograft), read-out: Tumor uptake",3.2 ± 0.1 %ID/g
"CC(C)C[C@H](NC(=O)C[C@H](O)[C@H](CC(C)C)NC(=O)[C@H](Cc1c[nH]cn1)NC(=O)CNC(=O)[C@@H](NC(=O)[C@H](C)NC(=O)[C@H](Cc1c[nH]c2ccccc12)NC(=O)[C@H](CCC(N)=O)NC(=O)[C@@H](Cc1ccccc1)NC(=O)CCOCCOCCOCCOCCNC(=O)OC1CCCc2c(cnnc2-c2ccc(CNC(=O)CCC(C(=O)O)N3CCN(CC(=O)O)CCN(CC(=O)O)CCN(CC(=O)O)CC3)cc2)CC1)C(C)C)C(N)=O (some centres unmarked) [[^111In]In-DOTAGA-Tz-TCO-PEG4-AR, metal not drawn]",logP,[1],-1.18 ± 0.05
same,remaining at 24 h,in vitro,~70%
D-Phe-Gln-Trp-Ala-Val-Gly-His-Sta-Leu-NH2 [AR],IC50,GRPR,2.9 ± 0.6 nM

# Reference: article PMC9785946, “Bioorthogonal Chemistry Approach for the Theranostics of GRPR-Expressing Cancers” (Pharmaceutics, 2022)
